Source: US20210030804A1

Target: CD19 on Nalm6 leukemia cells (UniProt P15391)
Test: cell-based or functional assay

Chain of UniProt P15391 (P15391 20-556 limits assumed): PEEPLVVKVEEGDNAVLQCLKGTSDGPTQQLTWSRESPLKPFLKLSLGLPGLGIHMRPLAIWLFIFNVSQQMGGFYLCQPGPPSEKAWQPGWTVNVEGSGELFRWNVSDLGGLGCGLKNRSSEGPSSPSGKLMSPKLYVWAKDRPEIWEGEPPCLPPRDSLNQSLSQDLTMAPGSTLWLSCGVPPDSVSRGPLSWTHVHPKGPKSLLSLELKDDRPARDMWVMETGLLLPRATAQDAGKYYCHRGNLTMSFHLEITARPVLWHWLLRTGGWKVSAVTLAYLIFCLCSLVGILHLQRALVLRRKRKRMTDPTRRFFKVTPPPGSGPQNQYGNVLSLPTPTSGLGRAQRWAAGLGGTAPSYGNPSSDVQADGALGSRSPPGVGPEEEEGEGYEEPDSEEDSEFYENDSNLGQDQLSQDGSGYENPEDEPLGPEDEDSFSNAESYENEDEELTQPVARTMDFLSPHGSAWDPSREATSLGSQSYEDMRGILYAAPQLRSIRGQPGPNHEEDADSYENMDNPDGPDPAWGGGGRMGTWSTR

B1: CD19 CAR (receptor, from a related filing)
chain: EVKLQQSGAELVRPGSSVKISCKASGYAFSSYWMNWVKQRPGQGLEWIGQIYPGDGDTNYNGKFKGQATLTADKSSSTAYMQLSGLTSEDSAVYFCARKTISSVVDFYFDYWGQGTTVTVSSGGGGSGGGGSGGGGSDIELTQSPKFMSTSVGDRVSVTCKASQNVGTNVAWYQQKPGQSPKPLIYSATYRNSGVPDRFTGSGSGTDFTLTITNVQSKDLADYFCQQYNRYPYTSGGGTKLEIKRAAAIEVMYPPPYLDNEKSNGTIIHVKGKHLCPSPLFPGPSKPFWVLVVVGGVLACYSLLVTVAFIIFWVRSKRSRLLHSDYMNMTPRRPGPTRKHYQPYAPPRDFAAYRSRVKFSRSADAPAYQQGQNQLYNELNLGRREEYDVLDKRRGRDPEMGGKPRRKNPQEGLYNELQKDKMAEAYSEIGMKGERRRGKGHDGLYQGLSTATKDTYDALHMQALPPR
Which Tumor Cell Killing Percentage (Nalm6 killed, 22 h co-culture, FACS with counting beads); E/T 0.024; CD19 level high does the source give for B1 here?
Its Tumor Cell Killing Percentage (Nalm6 killed, 22 h co-culture, FACS with counting beads); E/T 0.024; CD19 level high is 32%.

What about the Tumor Cell Killing Percentage (Nalm6 killed, 22 h co-culture, FACS with counting beads); E/T 0.024; CD19 level low of the same binder?
Its Tumor Cell Killing Percentage (Nalm6 killed, 22 h co-culture, FACS with counting beads); E/T 0.024; CD19 level low is 16.3%.

What about the Tumor Cell Killing Percentage (Nalm6 killed, 22 h co-culture, FACS with counting beads); E/T 0.024; CD19 level medium of the same binder?
The Tumor Cell Killing Percentage (Nalm6 killed, 22 h co-culture, FACS with counting beads); E/T 0.024; CD19 level medium was 17.2%.

And the Tumor Cell Killing Percentage (Nalm6 killed, 22 h co-culture, FACS with counting beads); E/T 0.024; CD19 level very low?
Its Tumor Cell Killing Percentage (Nalm6 killed, 22 h co-culture, FACS with counting beads); E/T 0.024; CD19 level very low is 0%.

What about the Tumor Cell Killing Percentage (Nalm6 killed, 22 h co-culture, FACS with counting beads); E/T 0.12; CD19 level high of the same binder?
The Tumor Cell Killing Percentage (Nalm6 killed, 22 h co-culture, FACS with counting beads); E/T 0.12; CD19 level high was 63.4%.

What about the Tumor Cell Killing Percentage (Nalm6 killed, 22 h co-culture, FACS with counting beads); E/T 0.12; CD19 level low of the same binder?
Its Tumor Cell Killing Percentage (Nalm6 killed, 22 h co-culture, FACS with counting beads); E/T 0.12; CD19 level low is 53.3%.

And the Tumor Cell Killing Percentage (Nalm6 killed, 22 h co-culture, FACS with counting beads); E/T 0.12; CD19 level medium?
The Tumor Cell Killing Percentage (Nalm6 killed, 22 h co-culture, FACS with counting beads); E/T 0.12; CD19 level medium was 63.6%.

What about the Tumor Cell Killing Percentage (Nalm6 killed, 22 h co-culture, FACS with counting beads); E/T 0.12; CD19 level very low of the same binder?
The Tumor Cell Killing Percentage (Nalm6 killed, 22 h co-culture, FACS with counting beads); E/T 0.12; CD19 level very low was 0.4%.

What about the Tumor Cell Killing Percentage (Nalm6 killed, 22 h co-culture, FACS with counting beads); E/T 0.6; CD19 level high of the same binder?
Its Tumor Cell Killing Percentage (Nalm6 killed, 22 h co-culture, FACS with counting beads); E/T 0.6; CD19 level high is 84.4%.

What about the Tumor Cell Killing Percentage (Nalm6 killed, 22 h co-culture, FACS with counting beads); E/T 0.6; CD19 level low of the same binder?
The Tumor Cell Killing Percentage (Nalm6 killed, 22 h co-culture, FACS with counting beads); E/T 0.6; CD19 level low was 77.2%.

What about the Tumor Cell Killing Percentage (Nalm6 killed, 22 h co-culture, FACS with counting beads); E/T 0.6; CD19 level medium of the same binder?
Its Tumor Cell Killing Percentage (Nalm6 killed, 22 h co-culture, FACS with counting beads); E/T 0.6; CD19 level medium is 79.4%.

What about the Tumor Cell Killing Percentage (Nalm6 killed, 22 h co-culture, FACS with counting beads); E/T 0.6; CD19 level very low of the same binder?
The Tumor Cell Killing Percentage (Nalm6 killed, 22 h co-culture, FACS with counting beads); E/T 0.6; CD19 level very low was 8.37%.
